In EP3470426A1 one finds Kd, koff and kon data, which are given here for one molecule.

The experiment concerns the target T1, mouse CD137-Fc chimeric protein (mouse), P20334.
T1 chain: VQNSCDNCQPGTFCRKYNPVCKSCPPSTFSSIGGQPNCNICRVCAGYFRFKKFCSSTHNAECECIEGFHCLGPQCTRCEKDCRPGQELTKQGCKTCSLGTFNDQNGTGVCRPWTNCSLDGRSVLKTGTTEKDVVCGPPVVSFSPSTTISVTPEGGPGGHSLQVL
Kind of experiment: SPR, CD137-Fc captured, binder injected. To be noted: remark: other sources report otherwise. On the technique in general: Surface plasmon resonance follows binding to a sensor surface in real time, without labels.

B1: PRO963 (protein)
chain: DIQMTQSPSSLSASVGDRVTITCQASQSINDYLAWYQQKPGKAPKLLIYKASTLASGVPSRFSGSGSGTDFTLTISSLQPEDFATYYCQQGYIITDIDNVFGTGTKVTVLGGGGGSQVQLQESGPGLVKPSETLSLTCKVSGFSFSNSYWICWIRQPPGKGLEWIGCTFVGSSDSTYYANWAKGRVTISVDSSKNQFSLKLSSVTAADTAVYYCARHPSDAVYGYANNLWGQGTLVTVSSGGGGSGGGGSGGGGSGGGGSIQMTQSPSSLSASVGDRVTITCQASQSINNVLAWYQQKPGKAPKLLIYRASTLASGVPSRFSGSGSGTDFTLTISSLQPEDFATYYCQSSYGNYGDFGTGTKVTVLGGGGGSQVQLQESGPGLVKPSETLSLTCKVSGFSFSSGYDMCWIRQPPGKGLEWIGCVVAGSVDITYYASWAKGRVTISVDSSKNQFSLKLSSVTAADTAVYYCARKDAYSDAFNLWGQGTLVTVSSGGGGSGGGGSIQMTQSPSSLSASVGDRVTITCQSSESVYSNNQLSWYQQKPGQPPKLLIYDASDLASGVPSRFSGSGSGTDFTLTISSLQPEDFATYYCAGGFSSSSDTAFGGGTKLTVLGGGGGSGGGGSGGGGSGGGGSEVQLVESGGGLVQPGGSLRLSCAASGFSLSSNAMGWVRQAPGKGLEYIGIISVGGFTYYASWAKGRFTISRDNSKNTVYLQMNSLRAEDTATYFCARDRHGGDSSGAFYLWGQGTLVTVSS
With B1, the Kd is 170 nM, the koff came out at 0.059 s⁻¹ and the kon was found to be 350000 M⁻¹ s⁻¹.

What is called Kd is the constant that tells how readily two partners part at equilibrium. For orientation: koff means the rate constant with which the complex falls apart. High values mean a short-lived complex, low ones a long-lived complex. A word on the kon: it is the second-order rate constant of association. Read a high kon as fast association.
